# Measured values: paper PMC10156792, “The structure and evolutionary diversity of the fungal E3-binding protein” (Communications Biology, 2023)
# B1: N.crassa E2 C-terminal catalytic transacetylase domain (residues 225-458) (domain or fragment, UniProt P20285 225-458, looked up)
# chain: AAYTDVPISGMRKTIAARLKESVTENPHFFVSTNLSVSKLLKLRQALNSSADGRYKLSVNDFLIKAMGIASKRVPTVNSSWRDGVIRQFETVDVSVAVATPNGLITPIVKGVEGKGLESISAAVKELAKKARDGKLKPEEYQGGSISISNMGMNPAVQSFTAIINPPQAAILAVGAPQKVAVPVENEDGTTGVSWDEQIIVTASFDHKVVDGAVGAEWIRELKKVIENPLELLL
# notes: Forms trimers that assemble into the icosahedral PDC core; also called E2 CTD; CTD; source: E. coli Rosetta2 (DE3), co-expressed with his-tagged E3BP 261-426 from the petDuet vector, purified (Ni-NTA, SEC)
# B2: N.crassa E3-binding protein core-binding domain (residues 261-426), his-tagged (domain or fragment, UniProt Q7RWS2 261-426, looked up)
# chain: PAPPPVAVVTAPISLSAAIDVQNKLHKTIGVFLPLSTFITRATEIANQKLPLPANYQPTADELFNQVLGLDKVTRKESRGSYTPTFGSFVAPQRAARKADIIDILAAPSTRVAASAQSKSAAPGLTTSGPNVFSLQVPKSEEKRAQAFLQKMKLVLEQEPDKLVRA
# notes: residues 265-346 and 390-425 were built; Trimer inside the E2 core by the cryo-EM reconstruction; also called E3BP CBD; CBD; source: E. coli Rosetta2 (DE3), co-expressed with E2 225-458 from the petDuet vector, purified (Ni-NTA, SEC)
# Assays:
# [1] = biological target: N.crassa E3-binding protein in the native pyruvate dehydrogenase complex (N.crassa); test: cryo-EM structure; native PDC data EMPIAR-10489 reprocessed; symmetry-expanded consensus alignments only, C3 symmetry, 4.1 Å
# [2] = biological target: the molecule itself; test: cryo-EM structure; recombinant co-expressed CTD:CBD sub-complex (tE2/PX261); symmetry expansion, signal subtraction and classification of E2 trimers, C3 symmetry, 3.2 Å
molecule,measurement,setting,value
N.crassa E3-binding protein in the native pyruvate dehydrogenase complex (natural protein),stoichiometry N,[1],3
B1,binding result,[2],binds
B2,stoichiometry N,[2],3
